From patent publication US20140212406 come the findings set out here.

The target in this series is plasminogen.

B1: rat single-chain tPA with arginine to serine point mutation at position 276 (R276S), 6xHis-tagged (protein)
chain: HHHHHHSYRATCRDEQTQTTYQQHQSWLRPMLRGNRVEYCRCNSGLAQCHSVPVRSCSEPRCFNGGTCQQALYFSDFVCQCPDGFVGKRCDIDTRATCFEGQGITYRGTWSTAENGAECINWNSSALSQKPYSARRPNAIKLGLGNHNYCRNPDRDVRPWCYVFKAGKYTTEFCSTPACPKGPTEDCYVGKGVTYRGTHSFTTSKASCLPWNSMILIGKTYTAWRANSQALGLGRHNYCRNPDGDAKPWCHVMKDRKLTWEYCDMSPCSTCGLRQYKQPLFSIKGGLFTDITSHPWQAAIFVKNKRSPGERFLCGGVLISSCWVLSAAHCFVERFPPHHLKVVLGRTYRVVPGEEEQTFEIEKYIVHKEFDDDTYDNDIALLQLRSDSSQCAQESSSVGTACLPDPDVQLPDWTECELSGYGKHEASSPFFSDRLKEAHVRLYPSSRCTSQHLFNKTITSNMLCAGDTRTGGNQDVHDACQGDSGGPLVCMIDKRMTLLGIISWGLGCGQKDVPGIYTKVTNYLNWIQDNMKQ
Regarding B1, the “conversion of plasminogen into plasmin (fibrin agarose zymography; PPP-clot lysis)” value is “Whereas sc*-tPA is not able to promote alone the conversion of plasminogen into plasmin, its fibrin cofactor partially brings back its plasminogen activation function”.
